Laboratory results as given in IntAct's records for PubMed 16531226.

B1: Serine/threonine-protein phosphatase 5 (Homo sapiens), P53041 (parent)
chain: MAMAEGERTECAEPPRDEPPADGALKRAEELKTQANDYFKAKDYENAIKFYSQAIELNPSNAIYYGNRSLAYLRTECYGYALGDATRAIELDKKYIKGYYRRAASNMALGKFRAALRDYETVVKVKPHDKDAKMKYQECNKIVKQKAFERAIAGDEHKRSVVDSLDIESMTIEDEYSGPKLEDGKVTISFMKELMQWYKDQKKLHRKCAYQILVQVKEVLSKLSTLVETTLKETEKITVCGDTHGQFYDLLNIFELNGLPSETNPYIFNGDFVDRGSFSVEVILTLFGFKLLYPDHFHLLRGNHETDNMNQIYGFEGEVKAKYTAQMYELFSEVFEWLPLAQCINGKVLIMHGGLFSEDGVTLDDIRKIERNRQPPDSGPMCDLLWSDPQPQNGRSISKRGVSCQFGPDVTKAFLEENNLDYIIRSHEVKAEGYEVAHGGRCVTVFSAPNYCDQMGNKASYIHLQGSDLRPQFHQFTAVPHPNVKPMAYANTLLQLGMM

Variants of: B1
Conditions: with hs90b_human HSP90AB1, P08238
hs90b_human HSP90AB1, P08238, sequence (P08238 whole entry): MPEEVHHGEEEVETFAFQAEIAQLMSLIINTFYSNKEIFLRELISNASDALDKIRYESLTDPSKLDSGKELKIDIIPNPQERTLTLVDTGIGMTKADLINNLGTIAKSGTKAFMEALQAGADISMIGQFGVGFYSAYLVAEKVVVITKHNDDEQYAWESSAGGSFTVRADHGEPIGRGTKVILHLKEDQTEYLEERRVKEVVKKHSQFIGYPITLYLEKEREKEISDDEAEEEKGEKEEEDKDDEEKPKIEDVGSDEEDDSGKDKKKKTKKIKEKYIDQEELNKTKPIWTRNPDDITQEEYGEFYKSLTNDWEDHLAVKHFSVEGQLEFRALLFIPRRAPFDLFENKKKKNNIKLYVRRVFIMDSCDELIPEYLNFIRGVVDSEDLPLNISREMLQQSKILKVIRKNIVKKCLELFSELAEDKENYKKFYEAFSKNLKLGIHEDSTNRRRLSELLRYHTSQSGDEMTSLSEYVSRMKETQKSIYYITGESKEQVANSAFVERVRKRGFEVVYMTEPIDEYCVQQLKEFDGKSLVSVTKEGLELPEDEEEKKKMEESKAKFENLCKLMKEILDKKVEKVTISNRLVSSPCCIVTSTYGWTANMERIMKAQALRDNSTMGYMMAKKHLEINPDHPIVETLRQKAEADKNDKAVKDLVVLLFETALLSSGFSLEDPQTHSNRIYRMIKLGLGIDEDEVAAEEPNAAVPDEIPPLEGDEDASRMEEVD

| Variant | effect of a mutation on the interaction |
| --- | --- |
| G83N | increasing interaction |
